A short description of this series: label from the status in PepcDB records.
As to “MNDITIIGASQNNLKNINITIPKHLVTVFTGRSGSGKSSLVFRTIAAESEQLLNESYSSYIQFHLNKQPKPKVNAIKNLPVAMTISQKRFNGNSRSTVGTVSDIYASVRLLWSRIGEPFVGYSDAFSFNSPNGMCETCEGLGYIEDINLNELLDWNKSLNEGAINFPSFGPDKERGKAYRDSGLFDNDKKLKAYTKEELDLFLYQEPIKLKKPPEEWRKSAKYVGLIPRFRRIFLGDKEFNKKRYAKHLKNVVENKVCPTCNGQRLNSKILSCKIMGKNISDFTQMTVKENLAFLNKLNNSTAQFIIEPLRKQLEALDYIGLSYLTLDRVTTSLSGGEAQRLKLIRHLNSSLSDLVYIIDEPSVGLHPEDIAKINEILKSLKHKGNTVLIVEHDPDVIKEADYIIDMGPSSGAQGGEITFKGTYKKLLSSDTSTGEALRIKHHLKNEIREAKSFYHLGPVTQNNLNNVTVDIPKHVLTVLTGVAGSGKSSLVKAGFAKNDNAVFMDQKAIQGSDRSNLLTYLGVFDRVRNFFSKETGLNKSMFSYNSKGACPNCGGKGYIETELAFMGEFSQTCEVCHGKRYKPEVLNATIDGYSIADFLELTVDEGIRFFDKENEIQSKLQAISKTGLNYVTLGQPLSTLSGGEIQRVKLGQYLNDDVTDSIFIFDEPTTGLHEADIPILINCFNDLIEQNNTVILIEHNLSIMCDADWIIDVGPGPGLDGGKIQFSGYPINFVKENKTLTSKHLKLYIAND”, the protein production entry is recorded as “failed”. For “MSLIPLRQNIASMKGYIPGYQPPDIASWIKLNTNENPYPPSPEVVKAILEELGPDGAALRIYPSASSQKLREVAGELYGFDPSWIIMANGSDEVLNNLIRAFAAEGEEIGYVHPSYSYYGTLAEVQGARVRTFGLTGDFRIAGFPERYEGKVFFLTTPNAPLGPSFPLEYIDELARRCAGMLVLDETYAEFAESNALELVRRHENVVVTRTLSKSYSLAGMRIGLAIARPEVIAALDKIRDHYNLDRLAQAACVAALRDQAYLSECCRRIRETREWFTTELRSIGYDVIPSQGNYLFATPPDRDGKRVYDGLYARKVLVRHFSDPLLAHGMRISIGTREEMEQTLAALKEIGEGHHHHHH”, the protein production entry is “not failed”. The entry for “MPSMSPIDKSWSTCPYGFLDGTHQELRRIFHLWRCKKYRSQFTEEKKATYEEKLAASELFKDKKALYPSSVSQPFKGDYVEITKNPKYQKLNSLVEDKVLLADVVSKINRANGKGTPRIFLLTKKCLVLADQKTGQVKASVPLPDLSSVFVSTQNDGFFALKLREGATSAAKGDYLLSSDRLIEIITKLYCTGAASAERNQIKIDISDEFLVQFKQDKVCVKFIQGTPKNSNSVSCKRKNNRLLEVSVPSP” is “failed”; for “MTTPIRVVVWNEFRHEKKDEQVRAIYPEGMHTVIASYLAEAGFDAATAVLDEPEHGLTDEVLDRCDVLVWWGHIAHDEVKDEVVERVHRRVLEGMGLIVLHSGHFSKIFKKLMGTTCNLKWREADEKERLWVVAPGHPIVEGIGPYIELEQEEMYGEFFDIPEPDETIFISWFEGGEVFRSGCTFTRGKGKIFYFRPGHETYPTYHHPDVLKVIANAVRWAAPVNRGEIVFGNVKPLEPIKAKQGGVTQ” it is “not failed”; for “ILIQINPLDNVAIVVNDHGLEKQTVIEEYQLTLVDDVPQGHKVLLKALKKDEAIIRYGEIIGYANADLEAGRWVNESVTRMPEA” it is “failed”. To “MDSQSENGSGAGNRTSIERRGDRELVVTRTFDAPRAMVYRAWSEPELFRRWWMPKSATGVTLVSCDMDVRTGGKYRLEFSTGGPQTMAFYGKYLDVVPNERIVWTNDEGEADAGEKGAITTVTFEDHGSQTLLRFHEVYPTAEALEEALQGSAAALPEQFDQLGEVLSGSGGKQ” belongs “failed”; to “MDVLSLVGIILAFVAIVGGNFLEGGHAGALLNGPAALIVIGGTLAAALLQTPVNVLKRGLGMLGWVFFPPREDLSGGIDRIVSWSMTARKEGLLGLESIADAEPDPYARKGLQLLVDGAEPEVIRSILEVDLFTQESRDLQAAKVFESMGGYAPTIGIIGAVMGLIHVMGNLANPAQLGSGIAVAFVATIYGVGFANLLLLPIGNKLKTLVLRQSRYREMLLEGLLSIAEGENPRSIELKLQGFMD”, “failed”; to “MIKLIATDIDGTLVKDGSLLIDPEYMSVIDRLIDKGIIFVVCSGRQFSSEFKLFAPIKHKLLYITDGGTVVRTPKEILKTYPMDEDIWKGMCRMVRDELPACDYFAATPDFCFAEDGGSPIFHLLRDSYGFEMREVDDITRLDRNDIIKFTVFHPDKCEELCTPVFIPAWNKKAHLAAAGKEWVDCNAKGVSKWTALSYLIDRFDLLPDEVCCFGDNLNDIEMLQNAGISYAVSNARQEVIAAAKHTCAPYWENGVLSVLKSFL”, “not failed”. On to “MDQIFNKVGSYWLGQKANKQFDSVGNDLNSVSTSIEGGTKWLVNKIKGKMQKPLPELLKEYDLPIGIFPGDATNYEFDEETKKLTVLIPSICEVGYKDSSVLKFTTTVTGHLEKGKLTDVEGIKTKVMIWVKVTSISTDASKVYFTAGMKKSRSRDAYEVQRNGLRVDKF”, for which the protein production entry is “not failed”. To “MESGKREQVELMFNNISPKYDLLNRVLSLGIDKIWRKQALNLLKQDKPAHILDVATGTADLAIEAATRLKPTSVVGIDIAEDMLQIGRGKIAKKNLDKIIRLEKGDSEKINFPDNTFDAVIVSFGVRNFEHLEIGLAEIHRVLKPAGSIMVLEFSKPQNAPFKQVYQFYFKNILPTVGKLISKDSAAYTYLPDSVNAFPDGKAFCSILEKTGFTIKHYKPYTFGVCTAYVGKLEHHHHHH” belongs “failed”. Regarding “APSQGATANAETQTTIPLGDTSQNALDWPGVYEGVLPCASCEGIQTTLTLQADNSFELKSIYLGKDESIFKVAGKFDWDSNGSKITLSDGSKYLVGENQLLMLDTEGNRITGGLAEHYILKKKGM”, the protein production entry is “not failed”. “MKIATTSSAFDLLPKDQKYKTKRVSYNDFSDLSFLPVVNPKIKRQKKTLEEEVDSTSKAKSSRTSLTKSVTTTTKLTKPEETITASSKECLQETKTNKKPDLRDLIAKAQEKIQNKREINHRREYITRQRIAARLALNQMVATVSFDDHLNYHREMEQRGYTFIQDQVDNLNMFSLWSRSDYNGITNSVLETSNTTMRSDEDSSRKKQQIIKKKSNTFPTDVKEH”: the protein production result was “failed”. To “MERIAMNPLMQQAIQFANDHETAWDRSVRGNFGVHLDDPPPWNRLLGPVHDRGPVSGVVVVDGQTLASWGEPERADLTFSVAKLYLSILAGVAHDRGLLPDVDEPVGRRVPGIGFDAGRNARITWRHLLQQTSEWEGERFGVPDQADRYRAVAFGIPPDGRKGDARPLQEPGTYWEYNDVRINQLSYALLHLFRRPLPEVFREAVTRPLGASEDWQWVGYDNAWVDIDGVRMPSVPGGTHWGGGMSISARDQALIGRMLLDEGRAADGRQVLSPAWIQAMRTPCDIAPYYGYLIWLNHERKVFPSVPASSFFGIGAGSSFTWVEPERRMVVIVRWLDAAYADALFGRILAAVDAHRAGLEHHHHHH” belongs “failed”; to “MCRALLSITMQIPLVKWTEGLNIKTIVSISYVCYAVAAIGFAFSSSIFWLLSTAVLFTAAESMLLNHMQTFVSRLAPNHIRGGYFAFFGPHWDISRTIGPFLGGMIFIKFGGAALFLAIAGIMALGGIAQYRAVSRLKKLVLYSTWY”, “failed”; to “MTGLINAIPATNKDEYKNVGVYIEHRGDELKRPSIEMIGIGKQLARKVNEKLICVVIGDKVDGIAKEVGEYGCDIVLAAESPELAEYRTMPYAEIIGGYIQEYKPNIFLLAATRNGRDLASRIAVKSRTGITADCTVLDIDENRTLLANRPTYGESTLAEILCRNHRPQMATARPGIFPPAEKEKDHKYEVIKKKVDVDKKLLGKQILKFIPRKSTDLTSAKIVVAGGLGLGGPDGFKMLEELANLIGGAVGSSRPPVDLGWITRDHQVGQTGQSVRPDLYIAVGISGKPQHIAGMKFSKVIVSINKDPNAEITKYSDYIITEDYRKVIPALIDAIKNSKKAQAPVQKA”, “failed”. On to “MALHSSSDQYGSVAVTIHWLTAVLIVIALLTGFRAAAAEDVTTEAALLRVHLPAAALVLVLTVVRVVWWLGIDDKPEPIDGAPRSQQLIAGTVHLLFYVVVFGMIASGIGMMLASGAAPAIFSRDVPALPEFWHYRPRIPHGLGARLLVLLLIAHLAAALYHHLRGDRVFRRMWFGRNPKS”, for which the protein production entry was “failed”. To “MLARVRRVLALILIVLAGLVALLSPAFPALSHYGTLPRHGDKPLNVLLAGVDVNYDEQAPVWPYPAQPEDYSGRTDTIVLTQVRPDGTVKLLSIPRDSWVPIAGWSGGWGKINSANVHGGPDMLLNTVQALTGVHPDGYALLSLNALRAVTEAVGGVTIDVPQRMKYDDNAGHLHIDLQPGRQRLSGEQAEGFLRFRKDNMGDIGRVGRQQQFLTALIAEIRRPANVWKLPKVIAALDANAKTNLTRAQIAELLGAAQRGPQVSTFTVPGNFGMVGAASVWNVDTPRLDALLAEQFRDPGDPHGLRVLVLNADAPDGSARRLKAKLEALGYHNVSTANEQKPWPVTTVSGPATPAAALLRDLGYGQLDNAPSLPGSELTIRLGRDTPAQ” belongs “failed”; to “MSTFAFNLGGEFDKSFLSTPKAYGDVIKALPQNASKIELDYASVYDYDTDGCYATAAISPDGTTNPGLSLGGSPESVCRDVNRLENSNTYSRAKSNNGWTAIMYASYFEKDQSTSGPVALGHRHDWEHTIVWVKDSQVQYVTYSAHGNWYTNPRSNVRFDGNHPKIVYHKDGGSTHAFRLANSNDEPPENYYHQWLQLPMVGWNGYPSPNIREKLMTTNFGDATLEIKDGRFEKALANAKPPINFDPYAPELEDGGTYQIVSILNNSSVVDLNQADGNVQLWQNGNANNQKWKLVYDSNKSAYQIKNIANQNLVLTWNNLNGSNNVVATTNQNKEEQYWIPTEAGNGYYYVRNKKDQNKVLDVSGYGTANGTNVTVYNFHGGNNQTFQLSNVTGTLTREVESLYKAQPGQTSRSSNNFSLEHLAAGTKVRVVLEGAGATSLSFKIARDKSGTDPVIWSNVRDGSILTIPSGDDRKNLYIAGPPSGYTSNGTFKVKFYALPN”, “failed”; to “MLTLALCIMILFTYLCMFFNFKYSAHLSIYISQVILGYVVIIIHIGEHTLPIDILVVMSLGALLLHIKHKHLMQNRMSALFLKRLYYVAFKLVVFTLACFYISLIPIGINVIFLWISAISFSALFTFICYMMCSSNFLNLNNKPDFDVILVLGAGIFTENVTPMLASRLDRALTLYVQQPNAKFIVSGGQGPDEPISEALAMKRYLIHHGVESNHIMLEDQSTSTSENIQFSKSLIESHFECVPKIVCVTSQFHIMRALRFGQKFNLKLTGVGSHTPYHFFEIALIRDFLALMYQYKLLLTVYFAALFFICIITYWFIPSIPL”, “failed”. “MKKKLKLTSLLGLSLLIMTACATNGVTSDITAESADFWSKLVYFFAEIIRFLSFDISIGVGIILFTVLIRTVLLPVFQVQMVASRKMQEAQPRIKALREQYPGRDMESRTKLEQEMRKVFKEMGVRQSDSLWPILIQMPVILALFQALSRVDFLKTGHFLWINLGSVDTTLVLPILAAVFTFLSTWLSNKALSERNGATTAMMYGIPVLIFIFAVYAPGGVALYWTVSNAYQVLQTYFLNNPFKIIAEREAVVQAQKDLENRKRKAKKKAQKTK”: the protein production result is “failed”. For the sequence “MPSFLEISPDKLNRLIGTPGAPRIIDVRTDEDFALDPRLVPGSIRRDHAEVASWADSIDADAVVVVCHRGAKLSHGVAAYLRHAGIEAESLAGGFEAWAAAGPAVPEAKLEHHHHHH”, the protein production entry was “failed”.

For the origin of these results see a protein production outcome set (Wang et al. 2014).
